Assay results: patent US20220017635A1

Tests used:
[1] = target: huTfR with mouse protease-like domain (human/mouse chimera); assay: ELISA on immobilized chimeric TfR; grade = binding relative to His-huTfR (++ 0.5 or more, + 0.2 to less than 0.5)
[2] = target: chimeric TfR A07 (human/mouse chimera) (UniProt P02786); assay: as above
[3] = target: chimeric TfR A14 (human/mouse chimera) (UniProt P02786); assay: as above
[4] = target: chimeric TfR A05 (human/mouse chimera) (UniProt P02786); assay: as above
[5] = target: huTfR with mouse apical domain (human/mouse chimera) (UniProt P02786); assay: ELISA on immobilized chimeric TfR
[6] = target: chimeric TfR A02 (human/mouse chimera) (UniProt P02786); assay: ELISA on immobilized chimeric TfR
[7] = target: chimeric TfR A03 (human/mouse chimera) (UniProt P02786); assay: ELISA on immobilized chimeric TfR
[8] = target: chimeric TfR A04 (human/mouse chimera) (UniProt P02786); assay: ELISA on immobilized chimeric TfR
[9] = target: chimeric TfR A03 (human/mouse chimera) (UniProt P02786); assay: ELISA on immobilized chimeric TfR; grade = binding relative to His-huTfR (++ 0.5 or more, + 0.2 to less than 0.5)
[10] = target: chimeric TfR A04 (human/mouse chimera) (UniProt P02786); assay: as above

Chain of chimeric TfR A02 (human/mouse chimera) (P02786 other isoform, or with tags, fused parts or gaps mutant): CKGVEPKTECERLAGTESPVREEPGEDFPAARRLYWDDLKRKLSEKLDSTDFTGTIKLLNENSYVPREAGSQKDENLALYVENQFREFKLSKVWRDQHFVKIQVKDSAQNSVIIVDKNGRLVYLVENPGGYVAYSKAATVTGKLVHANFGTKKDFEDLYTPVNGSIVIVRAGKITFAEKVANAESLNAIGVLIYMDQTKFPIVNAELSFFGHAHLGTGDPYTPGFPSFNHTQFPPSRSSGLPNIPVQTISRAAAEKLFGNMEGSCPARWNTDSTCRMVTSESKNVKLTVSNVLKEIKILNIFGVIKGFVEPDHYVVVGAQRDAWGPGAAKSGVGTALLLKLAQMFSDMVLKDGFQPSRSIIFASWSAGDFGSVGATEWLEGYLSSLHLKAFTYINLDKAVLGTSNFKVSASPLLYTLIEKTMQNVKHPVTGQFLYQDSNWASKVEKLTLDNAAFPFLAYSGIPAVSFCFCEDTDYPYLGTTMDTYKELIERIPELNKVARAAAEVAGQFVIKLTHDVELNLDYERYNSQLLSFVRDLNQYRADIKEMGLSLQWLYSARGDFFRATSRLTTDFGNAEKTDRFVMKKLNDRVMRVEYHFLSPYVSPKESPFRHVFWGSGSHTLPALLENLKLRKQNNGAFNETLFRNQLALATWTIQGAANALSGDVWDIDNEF
Chain of chimeric TfR A03 (human/mouse chimera) (P02786 other isoform, or with tags, fused parts or gaps mutant): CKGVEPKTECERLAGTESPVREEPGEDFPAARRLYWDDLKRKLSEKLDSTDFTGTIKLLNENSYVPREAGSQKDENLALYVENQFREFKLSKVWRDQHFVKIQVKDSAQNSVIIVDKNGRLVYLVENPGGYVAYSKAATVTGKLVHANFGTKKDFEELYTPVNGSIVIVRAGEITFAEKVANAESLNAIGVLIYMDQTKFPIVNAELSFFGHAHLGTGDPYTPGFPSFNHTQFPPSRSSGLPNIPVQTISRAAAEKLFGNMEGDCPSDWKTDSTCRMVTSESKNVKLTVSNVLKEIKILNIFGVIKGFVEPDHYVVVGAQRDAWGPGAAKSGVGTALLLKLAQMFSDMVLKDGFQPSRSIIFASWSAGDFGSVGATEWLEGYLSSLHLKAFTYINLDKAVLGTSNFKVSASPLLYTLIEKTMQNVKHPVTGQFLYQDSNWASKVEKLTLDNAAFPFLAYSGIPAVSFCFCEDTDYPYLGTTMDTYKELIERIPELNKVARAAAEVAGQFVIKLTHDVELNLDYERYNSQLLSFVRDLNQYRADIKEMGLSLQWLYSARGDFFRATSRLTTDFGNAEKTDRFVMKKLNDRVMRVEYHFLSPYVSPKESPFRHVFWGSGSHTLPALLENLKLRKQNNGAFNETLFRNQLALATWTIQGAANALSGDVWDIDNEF
Chain of chimeric TfR A07 (human/mouse chimera) (P02786 other isoform, or with tags, fused parts or gaps mutant): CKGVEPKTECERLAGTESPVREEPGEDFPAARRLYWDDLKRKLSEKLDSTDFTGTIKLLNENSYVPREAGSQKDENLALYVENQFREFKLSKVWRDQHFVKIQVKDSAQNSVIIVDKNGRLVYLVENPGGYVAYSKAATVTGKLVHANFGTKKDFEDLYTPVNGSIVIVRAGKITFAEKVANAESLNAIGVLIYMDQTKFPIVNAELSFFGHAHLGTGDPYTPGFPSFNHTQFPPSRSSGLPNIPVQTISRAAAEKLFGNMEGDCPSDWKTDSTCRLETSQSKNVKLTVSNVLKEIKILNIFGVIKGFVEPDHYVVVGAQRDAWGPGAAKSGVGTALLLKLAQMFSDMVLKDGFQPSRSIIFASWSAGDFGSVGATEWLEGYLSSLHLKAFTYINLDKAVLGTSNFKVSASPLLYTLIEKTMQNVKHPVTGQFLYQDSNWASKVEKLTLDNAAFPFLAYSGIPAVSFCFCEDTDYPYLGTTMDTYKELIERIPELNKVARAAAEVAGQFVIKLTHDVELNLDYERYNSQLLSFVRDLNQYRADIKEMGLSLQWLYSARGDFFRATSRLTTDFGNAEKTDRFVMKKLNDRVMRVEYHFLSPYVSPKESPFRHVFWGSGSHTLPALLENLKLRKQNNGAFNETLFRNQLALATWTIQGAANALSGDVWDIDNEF
Chain of chimeric TfR A04 (human/mouse chimera) (P02786 other isoform, or with tags, fused parts or gaps mutant): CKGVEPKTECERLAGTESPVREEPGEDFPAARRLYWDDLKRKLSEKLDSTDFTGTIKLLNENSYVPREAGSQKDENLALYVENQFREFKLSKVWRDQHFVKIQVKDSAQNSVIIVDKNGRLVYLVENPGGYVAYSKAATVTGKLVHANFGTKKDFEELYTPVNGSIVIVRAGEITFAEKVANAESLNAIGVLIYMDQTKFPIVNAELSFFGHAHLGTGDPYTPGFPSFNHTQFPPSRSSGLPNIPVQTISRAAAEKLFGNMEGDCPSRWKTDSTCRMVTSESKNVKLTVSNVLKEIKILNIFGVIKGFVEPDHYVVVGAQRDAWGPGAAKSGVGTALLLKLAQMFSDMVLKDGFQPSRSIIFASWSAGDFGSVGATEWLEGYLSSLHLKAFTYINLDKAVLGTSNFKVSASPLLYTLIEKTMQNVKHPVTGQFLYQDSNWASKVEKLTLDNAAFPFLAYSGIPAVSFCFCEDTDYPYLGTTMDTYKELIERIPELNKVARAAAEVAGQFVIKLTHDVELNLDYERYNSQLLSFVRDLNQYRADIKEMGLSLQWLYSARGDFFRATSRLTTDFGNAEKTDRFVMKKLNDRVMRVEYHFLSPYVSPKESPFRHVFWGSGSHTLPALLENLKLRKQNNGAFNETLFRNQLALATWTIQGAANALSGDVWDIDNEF
Chain of huTfR with mouse apical domain (human/mouse chimera) (P02786 other isoform, or with tags, fused parts or gaps mutant): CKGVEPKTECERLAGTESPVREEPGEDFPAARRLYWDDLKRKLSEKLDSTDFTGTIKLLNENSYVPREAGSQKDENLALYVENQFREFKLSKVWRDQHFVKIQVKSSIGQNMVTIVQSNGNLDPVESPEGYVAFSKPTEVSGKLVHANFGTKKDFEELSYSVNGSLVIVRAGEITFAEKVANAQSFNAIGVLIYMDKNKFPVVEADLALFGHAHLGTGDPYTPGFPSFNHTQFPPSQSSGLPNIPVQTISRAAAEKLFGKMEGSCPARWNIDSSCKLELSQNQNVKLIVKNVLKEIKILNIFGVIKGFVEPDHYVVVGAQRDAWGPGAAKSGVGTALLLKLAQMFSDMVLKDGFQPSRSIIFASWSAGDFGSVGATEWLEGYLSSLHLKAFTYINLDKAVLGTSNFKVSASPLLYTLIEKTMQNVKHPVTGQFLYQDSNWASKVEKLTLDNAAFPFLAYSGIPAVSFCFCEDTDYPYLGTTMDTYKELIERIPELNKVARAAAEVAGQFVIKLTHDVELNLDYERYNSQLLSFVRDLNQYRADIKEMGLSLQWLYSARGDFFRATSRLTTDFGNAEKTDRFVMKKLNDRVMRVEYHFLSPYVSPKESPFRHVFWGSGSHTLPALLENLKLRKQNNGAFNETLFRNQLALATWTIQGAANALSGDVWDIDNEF
Chain of chimeric TfR A14 (human/mouse chimera) (P02786 other isoform, or with tags, fused parts or gaps mutant): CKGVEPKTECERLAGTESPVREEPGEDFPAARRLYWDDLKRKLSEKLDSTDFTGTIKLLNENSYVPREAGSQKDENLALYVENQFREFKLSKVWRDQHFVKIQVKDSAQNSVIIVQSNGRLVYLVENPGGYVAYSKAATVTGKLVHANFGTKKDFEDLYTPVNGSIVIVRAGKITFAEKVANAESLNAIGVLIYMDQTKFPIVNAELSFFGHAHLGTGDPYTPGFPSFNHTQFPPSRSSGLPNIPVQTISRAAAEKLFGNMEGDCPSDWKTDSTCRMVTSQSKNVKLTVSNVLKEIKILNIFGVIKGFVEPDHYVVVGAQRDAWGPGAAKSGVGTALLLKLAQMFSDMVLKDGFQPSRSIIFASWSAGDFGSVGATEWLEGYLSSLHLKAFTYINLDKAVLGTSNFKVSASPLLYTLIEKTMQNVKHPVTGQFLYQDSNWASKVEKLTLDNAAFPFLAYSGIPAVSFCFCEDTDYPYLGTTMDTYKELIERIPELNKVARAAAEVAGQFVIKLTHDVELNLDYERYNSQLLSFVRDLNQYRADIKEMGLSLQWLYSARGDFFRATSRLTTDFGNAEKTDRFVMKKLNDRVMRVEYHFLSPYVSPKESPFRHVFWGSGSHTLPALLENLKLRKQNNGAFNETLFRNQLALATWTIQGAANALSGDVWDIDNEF
Chain of huTfR with mouse protease-like domain (human/mouse chimera) (chain, as listed by the source mutant limits assumed): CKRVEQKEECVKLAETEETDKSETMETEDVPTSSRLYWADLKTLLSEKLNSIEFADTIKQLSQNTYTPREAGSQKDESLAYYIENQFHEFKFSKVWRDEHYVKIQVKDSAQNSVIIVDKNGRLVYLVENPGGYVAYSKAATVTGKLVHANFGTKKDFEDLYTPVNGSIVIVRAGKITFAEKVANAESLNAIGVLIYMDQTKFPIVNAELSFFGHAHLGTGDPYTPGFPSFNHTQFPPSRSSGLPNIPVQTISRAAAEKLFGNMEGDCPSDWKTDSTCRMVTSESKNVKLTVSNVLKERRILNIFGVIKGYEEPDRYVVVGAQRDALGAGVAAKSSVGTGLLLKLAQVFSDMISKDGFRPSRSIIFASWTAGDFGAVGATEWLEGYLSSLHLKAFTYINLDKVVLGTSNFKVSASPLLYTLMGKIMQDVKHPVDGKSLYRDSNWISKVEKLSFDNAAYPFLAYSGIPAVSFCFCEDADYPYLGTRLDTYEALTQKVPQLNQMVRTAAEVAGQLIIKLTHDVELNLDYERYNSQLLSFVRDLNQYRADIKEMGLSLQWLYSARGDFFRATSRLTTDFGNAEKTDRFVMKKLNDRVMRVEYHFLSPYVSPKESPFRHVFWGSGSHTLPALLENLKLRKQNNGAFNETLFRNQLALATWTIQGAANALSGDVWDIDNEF

ratio of ELISA binding activity (A450-A570) to chimeric TfR over that to His-huTfR [1]	ratio of ELISA binding activity (A450-A570) to chimeric TfR over that to His-huTfR [2]	ratio of ELISA binding activity (A450-A570) to chimeric TfR over that to His-huTfR [3]	ratio of ELISA binding activity (A450-A570) to chimeric TfR over that to His-huTfR [4]	ratio of ELISA binding activity (A450-A570) to chimeric TfR over that to His-huTfR [5]	ratio of ELISA binding activity (A450-A570) to chimeric TfR over that to His-huTfR [6]	ratio of ELISA binding activity (A450-A570) to chimeric TfR over that to His-huTfR [7]	ratio of ELISA binding activity (A450-A570) to chimeric TfR over that to His-huTfR [8]	ratio of ELISA binding activity (A450-A570) to chimeric TfR over that to His-huTfR [9]	ratio of ELISA binding activity (A450-A570) to chimeric TfR over that to His-huTfR [10]	Binder
> 0.5	0.2 to 0.5	> 0.5	> 0.5	< 0.2	< 0.2	< 0.2	< 0.2			15G11v5 (antibody, from another filing, V domains shown) VH: EVQLVQSGAEVKKPGASVKVSCKASGYTFTSYWMHWVRQAPGQRLEWIGEINPTNGRTNYIEKFKSRATLTVDKSASTAYMELSSLRSEDTAVYYCARGTRAYHYWGQGTMVTVSS VL: DIQMTQSPSSLSASVGDRVTITCRASDNLYSNLAWYQQKPGKSPKLLVYDATNLADGVPSRFSGSGSGTDYTLTISSLQPEDFATYYCQHFWGTPLTFGQGTKVEIK
> 0.5	> 0.5	> 0.5	> 0.5	< 0.2	< 0.2			> 0.5	0.2 to 0.5	16F6v4 (antibody, from another filing, V domains shown) VH: EVQLVESGPGLVKPSETLSLTCTVSGNSITSEYAWNWIRQPPGKGLEWIGYISYSGTTSYNPSLKSRVTISRDTSKNQLSLKLSSVTAADTAVYYCARYGYGNPATRYFDVWGQGTLVTVSS VL: DIQMTQSPSSLSASVGDRVTITCRASKSISKYLAWYQQKPGKTNKLLLYSGSTLQSGVPSRFSGSGSGTDYTLTISSLQPEDFATYYCQQHNEYPWTFGQGTKVEIK
> 0.5	0.2 to 0.5	> 0.5	> 0.5	< 0.2	< 0.2			> 0.5	0.2 to 0.5	7A4v15 (antibody, from another filing, V domains shown) VH: EVQLVQSGAEVKKPGASVKVSCKGSGYTFTDYAMHWVRQAPGQGLEWMGGISTYFGRTNYNQKFKGRVTMTVDTSISTAYMELSRLRSDDTAVYYCARGLSGNYVMDYWGQGTTVTVSS VL: DIVMTQSPDSLAVSLGERATINCRASESVDSYGNSFMHWYQQKPGQPPKLLIYRASNLESGVPDRFSGSGSRTDFTLTISSLQAEDVAVYYCQQSNEAPPTFGQGTKLEIK
